# Source: the supplement of paper PMC10724198
# ± gives the standard deviation of the averaged measurements.
# What was measured:
# Saccharomyces cerevisiae [1] = experiment: protein stability index of tFT-peptide fusion (C-terminal peptide) (PSI (0-1 scale)); higher = more stable (slower turnover)
# Protocol: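 MPS profiling in S. cerevisiae of the tFT-X12 degron library: putative degron peptides plus stable controls, 12 aa, fused to the C-terminus of a sfGFP-mCherry timer. Cells are FACS-sorted into 8 mCherry/sfGFP bins and deep-sequenced. PSI runs from 0 (unstable) to 1 (stable). Backgrounds are wild type, das1Δ and doa10Δ at 30 °C, and wild type, das1Δ, cdc34-1 and cdc53-1 at 37 °C; 2-3 technical replicates each.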
# Saccharomyces cerevisiae [2] = experiment: as above; settings: genetic background: wild type; temperature: 30 C
# [3] = genetic background: cdc34-1, temperature: 37 C
# [4] = genetic background: cdc53-1, temperature: 37 C
# [5] = genetic background: das1 deletion, temperature: 30 C
# [6] = genetic background: das1 deletion, temperature: 37 C
# [7] = genetic background: doa10 deletion, temperature: 30 C
# [8] = genetic background: wild type, temperature: 30 C
# [9] = genetic background: wild type, temperature: 37 C
# 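Also: PSI is a weighted mean of sequencing reads over stability bins, variants kept only with over 10 reads, mCherry proximal and sfGFP distal, peptide attached via GGGS linker.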
Sequence,protein stability index (Saccharomyces cerevisiae [1]; [3]),protein stability index (Saccharomyces cerevisiae [1]; [4]),protein stability index (Saccharomyces cerevisiae [1]; [5]),protein stability index (Saccharomyces cerevisiae [1]; [6]),protein stability index (Saccharomyces cerevisiae [1]; [7]),protein stability index (Saccharomyces cerevisiae [1]; [8]),protein stability index (Saccharomyces cerevisiae [1]; [9]),protein stability index (Saccharomyces cerevisiae [2])
FVSHRRFSLFLY,0.584 ± 0.038,0.691 ± 0.011,0.602 ± 0.019,0.726 ± 0.046,0.124 ± 0.0019,0.143 ± 0.021,0.203 ± 0.019,0.209 ± 0.02
FVVLVFMLGSVC,0.274 ± 0.035,0.379 ± 0.029,0.254 ± 0.044,0.454 ± 0.044,0.234 ± 0.0062,0.245 ± 0.049,0.426 ± 0.035,0.365 ± 0.037
FVVVGLGLLCLA,0.492 ± 0.0066,0.565 ± 0.011,0.362 ± 0.027,0.569 ± 0.0068,0.257 ± 0.015,0.305 ± 0.02,0.491 ± 0.014,0.473 ± 0.013
FVWVVRMLVFVP,0.178 ± 0.0058,0.2493 ± 0.00099,0.187 ± 0.025,0.383 ± 0.023,0.165 ± 0.008,0.16 ± 0.025,0.3 ± 0.0077,0.276 ± 0.017
FWHGRCPGLYLV,0.583 ± 0.11,0.639 ± 0.018,0.607 ± 0.012,0.7263 ± 0.0042,0.163 ± 0.009,0.169 ± 0.03,0.304 ± 0.005,0.27 ± 0.0087
FYIRFYVYSWLF,0.376 ± 0.0093,0.441 ± 0.011,0.304 ± 0.051,0.492 ± 0.0077,0.278 ± 0.0083,0.303 ± 0.01,0.46 ± 0.0047,0.3604 ± 0.0023
FYLSSCFLFLRF,0.174 ± 0.052,0.136 ± 0.046,0.311 ± 0.012,0.33618 ± 0.0003,0.62 ± 0.04,0.288 ± 0.017,0.305 ± 0.023,0.355 ± 0.0087
GAVRRWGGVSFV,0.626 ± 0.041,0.707 ± 0.026,0.643 ± 0.011,0.707 ± 0.032,0.662 ± 0.028,0.664 ± 0.0068,0.679 ± 0.015,0.259 ± 0.068
GDLEFCCLIIVL,0.4401 ± 0.0033,0.556 ± 0.072,0.302 ± 0.018,0.5755 ± 0.005,0.27 ± 0.042,0.306 ± 0.032,0.5052 ± 0.0033,0.321 ± 0.0098
GELPGELYKFWL,0.769 ± 0.052,0.7774 ± 0.005,0.664 ± 0.022,0.7558 ± 0.0025,0.671 ± 0.024,0.671 ± 0.016,0.743 ± 0.021,0.754 ± 0.03
GFFLLSFLFFVR,0.148 ± 0.0056,0.181 ± 0.037,0.212 ± 0.023,0.393 ± 0.034,0.234 ± 0.02,0.195 ± 0.021,0.311 ± 0.007,0.224 ± 0.032
GFGDKVPWRWVI,0.606 ± 0.037,0.759 ± 0.022,0.657 ± 0.026,0.7816 ± 0.0045,0.124 ± 0.01,0.135 ± 0.0096,0.244 ± 0.0061,0.227 ± 0.045
GFSVFSHSVWVR,0.133 ± 0.044,0.0797 ± 0.0059,0.19 ± 0.032,0.271 ± 0.012,0.437 ± 0.016,0.194 ± 0.011,0.238 ± 0.013,0.313 ± 0.014
GGICVVAYWRLA,0.4654 ± 0.0011,0.518 ± 0.006,0.388 ± 0.034,0.564 ± 0.01,0.0948 ± 0.013,0.105 ± 0.021,0.173 ± 0.0065,0.198 ± 0.025
GGMGLWCCVSVG,0.665 ± 0.01,0.6779 ± 0.0056,0.528 ± 0.027,0.68341 ± 0.00034,0.513 ± 0.015,0.54 ± 0.015,0.651 ± 0.0083,0.527 ± 0.099
GGRSLYAILCAV,0.3216 ± 0.0018,0.393 ± 0.018,0.277 ± 0.028,0.4669 ± 0.0034,0.166 ± 0.021,0.197 ± 0.027,0.261 ± 0.011,0.321 ± 0.03
GGSLWLVHLKTI,0.604 ± 0.059,0.761 ± 0.038,0.633 ± 0.035,0.718 ± 0.025,0.118 ± 0.026,0.158 ± 0.011,0.275 ± 0.082,0.181 ± 0.044

Sequence,protein stability index (Saccharomyces cerevisiae [1]; [3]),protein stability index (Saccharomyces cerevisiae [1]; [4]),protein stability index (Saccharomyces cerevisiae [1]; [5]),protein stability index (Saccharomyces cerevisiae [1]; [6]),protein stability index (Saccharomyces cerevisiae [1]; [7]),protein stability index (Saccharomyces cerevisiae [1]; [8]),protein stability index (Saccharomyces cerevisiae [1]; [9]),protein stability index (Saccharomyces cerevisiae [2])
GGTFWDGLVLVH,0.34 ± 0.023,0.418 ± 0.03,0.32 ± 0.028,0.484 ± 0.0082,0.274 ± 0.013,0.334 ± 0.035,0.45476 ± 9.2e-06,0.497 ± 0.097
GGYGAGLRSPLF,0.709 ± 0.04,0.755 ± 0.013,0.6761 ± 0.0025,0.741 ± 0.015,0.664 ± 0.014,0.661 ± 0.0099,0.729 ± 0.022,0.736 ± 0.044
GINHLSLKLRLF,0.647 ± 0.049,0.723 ± 0.017,0.631 ± 0.014,0.7423 ± 0.0037,0.109 ± 0.037,0.133 ± 0.0058,0.288 ± 0.01,0.262 ± 0.017
GIVSGEGAVGVG,0.46 ± 0.041,0.511 ± 0.025,0.468 ± 0.0097,0.5212 ± 0.0039,0.488 ± 0.022,0.466 ± 0.011,0.4989 ± 0.0019,0.509 ± 0.025
GIVYFDQWISVS,0.546 ± 0.031,0.538 ± 0.082,0.393 ± 0.022,0.571 ± 0.016,0.321 ± 0.0069,0.347 ± 0.02,0.544 ± 0.0084,0.461 ± 0.052
GLACNPQLLRWT,0.692 ± 0.014,0.7433 ± 0.0064,0.653 ± 0.018,0.7437 ± 0.0035,0.665 ± 0.035,0.654 ± 0.027,0.7175 ± 0.0069,0.756 ± 0.051
GLFGFASPPPPS,0.678 ± 0.042,0.7583 ± 0.0047,0.677 ± 0.016,0.749 ± 0.0081,0.6784 ± 0.0035,0.71 ± 0.021,0.722 ± 0.011,0.25 ± 0.032
GLLAEPALLLLS,0.661 ± 0.06,0.699 ± 0.027,0.618 ± 0.0073,0.724 ± 0.023,0.604 ± 0.037,0.62 ± 0.025,0.6881 ± 0.0066,0.499 ± 0.1
GLLLLGIRLKWG,0.139 ± 0.029,0.274 ± 0.037,0.208 ± 0.015,0.363 ± 0.026,0.157 ± 0.014,0.206 ± 0.013,0.328 ± 0.02,0.269 ± 0.011
GLLLRLRNLFCM,0.759 ± 0.087,0.8043 ± 0.0034,0.748 ± 0.019,0.851 ± 0.028,0.387 ± 0.026,0.391 ± 0.02,0.547 ± 0.05,0.522 ± 0.042
GLVVVVRLQYSP,0.309 ± 0.027,0.424 ± 0.02,0.329 ± 0.017,0.458 ± 0.011,0.27482 ± 1.4e-06,0.299 ± 0.016,0.4415 ± 0.0014,0.404 ± 0.027
GLYFFVVRIFKV,0.219 ± 0.021,0.345 ± 0.075,0.221 ± 0.039,0.437 ± 0.013,0.167 ± 0.0056,0.184 ± 0.022,0.336 ± 0.0096,0.27 ± 0.059
GPGTWLFCFVRF,0.504 ± 0.032,0.55 ± 0.0069,0.432 ± 0.029,0.602 ± 0.0065,0.475 ± 0.017,0.42 ± 0.022,0.612 ± 0.031,0.509 ± 0.027
GQFFRCWRRRLC,0.634 ± 0.044,0.709 ± 0.0072,0.649 ± 0.03,0.72 ± 0.022,0.145 ± 0.019,0.166 ± 0.028,0.443 ± 0.011,0.171 ± 0.081
GRGLRVCWVWSG,0.622 ± 0.054,0.7084 ± 0.0069,0.605 ± 0.019,0.7428 ± 0.0054,0.147 ± 0.013,0.18 ± 0.015,0.387 ± 0.013,0.286 ± 0.016
GRHRRIRYVKTS,0.633 ± 0.05,0.723 ± 0.0099,0.655 ± 0.014,0.744 ± 0.028,0.146 ± 0.024,0.183 ± 0.03,0.3527 ± 0.00097,0.261 ± 0.087
